Assay [1] concerns the target T1, recombinant soluble human IL-6 receptor (SR344) (human, UniProt P08887 20-344, biotinylated (sites not given) where immobilized via streptavidin or used in phage ELISA).
T1 construct: also called soluble IL-6 receptor; membrane-type IL-6 receptor (when biotinylated and immobilized on the chip)
T1 sequence (looked up): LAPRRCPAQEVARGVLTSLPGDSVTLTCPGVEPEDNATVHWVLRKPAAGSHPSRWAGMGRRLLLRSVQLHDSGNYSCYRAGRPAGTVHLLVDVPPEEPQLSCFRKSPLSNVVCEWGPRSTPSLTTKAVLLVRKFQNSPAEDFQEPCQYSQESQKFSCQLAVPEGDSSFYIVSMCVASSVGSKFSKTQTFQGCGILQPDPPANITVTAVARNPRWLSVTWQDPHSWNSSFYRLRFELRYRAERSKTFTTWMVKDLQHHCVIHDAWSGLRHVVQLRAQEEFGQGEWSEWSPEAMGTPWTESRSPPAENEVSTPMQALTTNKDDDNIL
As to the kind of experiment: SPR Biacore T100, antibody captured by anti-IgG gamma chain F(ab)2, SR344 analyte, pH 7.4, 37 C. Here is the method: Kinetic analyses of antigen-antibody reactions at pH 7.4 were carried out on the four types of antibodies, i.e., the humanized PM1 antibody (wild type: WT), and […], H3pI/L73-IgG1, Fv2-IgG1, and Fv4-IgG1 constructed in Examples 2 and 10, by using a Biacore T100™ surface plasmon resonance system (GE Healthcare) (buffer: 10 mM MES (pH 7.4), 150 mM NaCl, 0.05% TWEEN® 20 (polyoxyethelene sorbitan monolaurate)). Each antibody was bound on a sensor chip on which an anti-IgG γ chain specific F(ab)₂ (Pierce) was immobilized by amine coupling, and then, SR344 adjusted to a concentration of 9.8 to 40 nM was injected thereto as an analyte. The association to and dissociation from SR344 were observed on a real-time basis for the pH-dependent-binding clones. All the measurements were carried out at 37° C. Association rate constants kₐ (1/Ms) and dissociation rate constants kd (1/s) were calculated using Biacore T100™ Evaluation Software (GE Healthcare), and dissociation constants KD (M) were calculated on the basis of those values (Table 7).
The association to and dissociation from SR344 were observed on a real-time basis using the same method as Example 10 for the eleven types of antibodies, humanized PM1 antibody (wild type: WT) and H3pI/L73-IgG1, Fv1-M71, Fv1-M73, Fv2-IgG1, Fv3-M71, Fv3-M73, Fv4-IgG1, Fv4-IgG2, Fv4-M58, and Fv4-M73, constructed as described above. The association rate constants kₐ (1/Ms) and dissociation rate constants kd. (1/s) were calculated by analysis in the same manner, and the dissociation constants KD (M) were calculated on the basis of those values (Table 11).
Background: In SPR one partner is held on a chip, and binding of the other changes the refractive index at the surface.

For assay [2], the target named is T1, recombinant soluble human IL-6 receptor …. In words: SPR Biacore T100, biotinylated SR344 on streptavidin chip (model of membrane-type IL-6 receptor), antibody as analyte, 37 C. Here is the method:
(§1) Binding to the membrane-type IL-6 receptor was evaluated by evaluating binding to the IL-6 receptor immobilized on a sensor chip. SR344 was biotinylated in accordance with a method known among persons with ordinary skill in the art, and the biotinylated SR344 was immobilized on the sensor chip via streptavidin using the affinity between streptavidin and biotin. All the measurements were carried out at 37° C. The mobile phase buffer was 10 mM MES (pH 5.8), 150 mM NaCl and 0.05% TWEEN® 20 (polyoxyethelene sorbitan monolaurate).
(§2) The pH-dependently-binding clones were injected under the condition of pH 7.4 to allow them to bind to SR344, and then, the pH-dependent dissociation of each clone at the pH of the mobile phase, pH 5.8, was observed. The results are shown in FIG. 21 (results for Fv1-M71, Fv1-M73, Fv3-M71, and Fv3-M73 are shown in FIG. 21, while results for other clones are shown in FIGS. 17 and 19). Analyses were carried out in the same manner as in Example 10 and the pH dependencies of the dissociation rate constants of all of the eleven types of clones are shown in Table 12.

The target is the same in assay [3]. As to the kind of experiment: SPR Biacore T100, biotinylated SR344 on streptavidin chip (model of membrane-type IL-6 receptor), antibody as analyte, bound at pH 7.4, dissociation at pH 5.8, 37 C. Here is the method:
as §1, §2

Assay [4] has the same target. As to the kind of experiment: SPR Biacore T100, biotinylated SR344 on streptavidin chip (model of membrane-type IL-6 receptor), antibody as analyte, bound at pH 7.4, dissociation at pH 7.4, 37 C. The method, then: as §1, §2
The target is the same in assay [5]. As to the kind of experiment: SPR Biacore T100, antibody on protein A/G chip, SR344 analyte, pH 5.8, 37 C. Here is the method: (§3) Kinetic analysis of antigen-antibody reactions at pH 7.4 and pH 5.8 was carried out using a Biacore T100™ surface plasmon resonance system (GE Healthcare) for the four types of antibodies prepared: WT-IgG1, H54/L28-IgG1, H170/L82-IgG1, and Fv4-IgG1 (buffer: 10 mM MES (pH 7.4 or pH 5.8), 150 mM NaCl, 0.05% Surfactant P20 (polyoxyethelene sorbitan monolaurate)). The antibodies were bound to a sensor chip on which recomb-protein A/G (Pierce) was immobilized by amine coupling, and SR344 adjusted to an appropriate concentration was injected therein as an analyte. The association with and dissociation from SR344 of each type of antibody were observed on a real-time basis. All the measurements were carried out at 37° C. Association rate constants kₐ (1/Ms) and dissociation rate constants kd (1/s) were calculated using Biacore T100™ Evaluation Software (GE Healthcare), and dissociation constants KD (M) were calculated based on those values (Table 17).

Assay [6] shares this target. As to the kind of experiment: SPR Biacore T100, antibody on protein A/G chip, SR344 analyte, pH 7.4, 37 C. The method, then:
as §3

Assay [7] shares this target. As to the kind of experiment: SPR Biacore T100, antibody on protein A/G chip, SR344 analyte, 37 C, ratio of pH 5.8 to pH 7.4. The method, then: as §3

Substitutions are numbered along the chain they refer to.

B1: Fv3-M73 (antibody)
heavy: QVQLQESGPGLVKPSETLSLTCAVSGHSISHDHAWSWVRQPPGEGLEWIGFISYSGITNYNPTLQGRVTISRDNSKNTLYLQMNSLRAEDTAVYYCARSLARTTAMDYWGEGTLVTVSSASTKGPSVFPLAPSSKSTSGGTAALGCLVKDYFPEPVTVSWNSGALTSGVHTFPAVLQSSGLYSLSSVVTVPSSNFGTQTYTCNVDHKPSNTKVDKTVERKSCVECPPCPAPPVAGPSVFLFPPKPKDTLMISRTPEVTCVVVDVSQEDPEVQFNWYVDGVEVHNAKTKPREEQFNSTFRVVSVLTVVHQDWLNGKEYKCKVSNKGLPAPIEKTISKTKGQPREPQVYTLPPSQEEMTKNQVSLTCLVKGFYPSDIAVEWESNGQPENNYKTTPPMLDSDGSFFLYSKLTVDKSRWQEGNVFSCSVMHEALHAHYTQKSLSLSP
light: DIQMTQSPSSLSASVGDSVTITCQASRDISSHLNWYQQKPGKAPELLIYYGSHLLSGVPSRFSGSGSGTDFTFTISSLEAEDAATYYCGQGNRLPYTFGQGTKVEIERTVAAPSVFIFPPSDEQLKSGTASVVCLLNNFYPREAKVQWKVDNALQSGNSQESVTEQDSKDSTYSLSSTLTLSKADYEKHKVYACEVTHQGLSSPVTKSFNRGEC
As usually defined, the Kd is a measure of binding affinity in units of concentration. Usually koff stands for the first-order rate constant of dissociation. What is called kon is the rate constant with which the complex forms. As to B1, in assay [1], the equilibrium dissociation constant (Kd) is 1 nM. For the same molecule, the koff in assay [1] was 0.00087 s⁻¹; in assay [3], 0.0053 s⁻¹; in assay [4], 0.00049 s⁻¹. The kon in assay [1] was determined as 850000 M⁻¹ s⁻¹. The “kd (pH 5.8)/kd (pH 7.4)” value in assay [2] was determined as 10.9.

B2: Fv1-M71 (antibody, human IgG2, kappa)
heavy: QVQLQESGPGLVKPSETLSLTCAVSGYSISHDHAWSWVRQPPGEGLEWIGHISYSGITNYNPHLQDRVTISRDTSKNQFSLKLSSVTAADTAVYYCARFLARITAHDHWGEGTLVTVSSASTKGPSVFPLAPCSRSTSESTAALGCLVKDYFPEPVTVSWNSGALTSGVHTFPAVLQSSGLYSLSSVVTVPSSNFGTQTYTCNVDHKPSNTKVDKTVERKCCVECPPCPAPPVAGPSVFLFPPKPKDTLMISRTPEVTCVVVDVSHEDPEVQFNWYVDGVEVHNAKTKPREEQFNSTFRVVSVLTVVHQDWLNGKEYKCKVSNKGLPAPIEKTISKTKGQPREPQVYTLPPSREEMTKNQVSLTCLVKGFYPSDIAVEWESNGQPENNYKTTPPMLDSDGSFFLYSKLTVDKSRWQQGNVFSCSVMHEALHAHYTQKSLSLSPGK
light: B1 light with L55E
Consider B2, for which, in assay [1], the Kd came out at 0.97 nM, the off-rate constant (koff) is 0.00054 s⁻¹ and the kon was 550000 M⁻¹ s⁻¹. The “kd (pH 5.8)/kd (pH 7.4)” value in assay [2] amounted to 11.3. The koff in assay [3] was 0.0069 s⁻¹. Further, in assay [4], the koff amounted to 0.00061 s⁻¹.

B3: Fv3-M71 (antibody, human IgG2, kappa)
heavy: QVQLQESGPGLVKPSETLSLTCAVSGHSISHDHAWSWVRQPPGEGLEWIGFISYSGITNYNPTLQGRVTISRDNSKNTLYLQMNSLRAEDTAVYYCARSLARTTAMDYWGEGTLVTVSSASTKGPSVFPLAPCSRSTSESTAALGCLVKDYFPEPVTVSWNSGALTSGVHTFPAVLQSSGLYSLSSVVTVPSSNFGTQTYTCNVDHKPSNTKVDKTVERKCCVECPPCPAPPVAGPSVFLFPPKPKDTLMISRTPEVTCVVVDVSHEDPEVQFNWYVDGVEVHNAKTKPREEQFNSTFRVVSVLTVVHQDWLNGKEYKCKVSNKGLPAPIEKTISKTKGQPREPQVYTLPPSREEMTKNQVSLTCLVKGFYPSDIAVEWESNGQPENNYKTTPPMLDSDGSFFLYSKLTVDKSRWQQGNVFSCSVMHEALHAHYTQKSLSLSPGK
light: B1 light
With B3, in assay [1], the Kd is 1.1 nM, the koff was found to be 0.00082 s⁻¹ and the on-rate constant (kon) is 780000 M⁻¹ s⁻¹. Also, the “kd (pH 5.8)/kd (pH 7.4)” value in assay [2] came out at 10.7. Besides, the off-rate constant (koff) in assay [3] is 0.0097 s⁻¹. The koff in assay [4] is 0.00091 s⁻¹.

B4: Fv1-M73 (antibody)
heavy: QVQLQESGPGLVKPSETLSLTCAVSGYSISHDHAWSWVRQPPGEGLEWIGHISYSGITNYNPHLQDRVTISRDTSKNQFSLKLSSVTAADTAVYYCARFLARITAHDHWGEGTLVTVSSASTKGPSVFPLAPSSKSTSGGTAALGCLVKDYFPEPVTVSWNSGALTSGVHTFPAVLQSSGLYSLSSVVTVPSSNFGTQTYTCNVDHKPSNTKVDKTVERKSCVECPPCPAPPVAGPSVFLFPPKPKDTLMISRTPEVTCVVVDVSQEDPEVQFNWYVDGVEVHNAKTKPREEQFNSTFRVVSVLTVVHQDWLNGKEYKCKVSNKGLPAPIEKTISKTKGQPREPQVYTLPPSQEEMTKNQVSLTCLVKGFYPSDIAVEWESNGQPENNYKTTPPMLDSDGSFFLYSKLTVDKSRWQEGNVFSCSVMHEALHAHYTQKSLSLSP
light: B1 light with L55E
On to B4, for which, in assay [1], the Kd came to 0.91 nM, the off-rate (koff) amounted to 0.00055 s⁻¹ and the kon was found to be 610000 M⁻¹ s⁻¹. For the same molecule, the “kd (pH 5.8)/kd (pH 7.4)” value in assay [2] is 8.8. Moreover, the koff in assay [3] turned out to be 0.0032 s⁻¹. For the same molecule, the koff in assay [4] was 0.00037 s⁻¹.

B5: H54/L28-IgG1 (antibody, V domains shown)
VH: QVQLQESGPGLVKPSETLSLTCAVSGYSISDDQAWSWVRQPPGEGLEWIGYISYSGITNYNPSLKGRVTISRDTSKNQFSLKLSSVTAADTAAYYCARSLARTTAMDYWGEGTLVTVSS
VL: DIQMTQSPSSLSASVGDSVTITCQASQDISSYLNWYQQKPGKAPELLIYYGSELHSGVPSRFSGSGSGTDFTFTISSLEAEDAATYYCQQGNSLPYTFGQGTKVEIE
notes: IgG1
As for B5, in assay [5], the dissociation constant Kd turned out to be 1.1 nM, the koff was 0.0027 s⁻¹ and the kon is 2.4e+06 M⁻¹ s⁻¹. In assay [6], the equilibrium dissociation constant (Kd) turned out to be 1.7 nM, the koff came out at 0.0014 s⁻¹ and the kon came out at 830000 M⁻¹ s⁻¹. In assay [7], the “KD (pH 5.8)/KD (pH 7.4)” value worked out at 0.7 and the “kd (pH 5.8)/kd (pH 7.4)” value worked out at 2.

Values taken from US20180282719A1 (published 2018).
